Consider two molecules from US20210332115A1 (Sanofi, published 2021).

The target of one assay is T1, aCls (Comptech A104) (UniProt P09871 16-688).
T1 construct: the active enzyme is a two-chain form of this precursor; also called aC1s
T1 sequence (looked up): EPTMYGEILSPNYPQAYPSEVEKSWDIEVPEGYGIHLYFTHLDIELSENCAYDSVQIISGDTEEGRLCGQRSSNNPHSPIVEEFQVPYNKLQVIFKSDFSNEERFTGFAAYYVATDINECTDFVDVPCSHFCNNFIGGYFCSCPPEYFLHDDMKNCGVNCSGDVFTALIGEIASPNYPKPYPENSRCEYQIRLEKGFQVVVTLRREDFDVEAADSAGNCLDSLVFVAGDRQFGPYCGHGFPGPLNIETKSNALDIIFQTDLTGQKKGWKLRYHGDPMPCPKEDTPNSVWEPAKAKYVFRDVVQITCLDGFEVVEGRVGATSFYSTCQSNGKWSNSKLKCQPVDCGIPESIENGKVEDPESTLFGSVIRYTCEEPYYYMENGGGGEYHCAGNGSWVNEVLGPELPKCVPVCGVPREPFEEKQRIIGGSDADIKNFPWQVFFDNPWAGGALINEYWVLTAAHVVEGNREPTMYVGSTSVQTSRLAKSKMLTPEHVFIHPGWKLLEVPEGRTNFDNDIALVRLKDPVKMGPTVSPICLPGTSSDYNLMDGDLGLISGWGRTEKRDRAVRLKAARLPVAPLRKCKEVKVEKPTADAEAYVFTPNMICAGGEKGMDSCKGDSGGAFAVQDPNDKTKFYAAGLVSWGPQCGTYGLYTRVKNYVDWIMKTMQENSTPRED
In words: ELISA, target coated at 2.5 µg/mL, biotinylated antibody titrated, streptavidin-HRP, OD450 background subtracted. The procedure:
(§1) Briefly, complement and plasma proteins were coated onto ELISA plates at 2. 5 μg/mL in PBS overnight at 4° C. Plates were then blocked with Casein for 1 hour at room temperature and washed four times with 1× DPBS/0.05% Tween-20 followed by a single wash with 1× DPBS. Serial dilutions starting at 50 μg/ml of biotinylated chimeric parent or VH6/VK7-IgG4v2 were added to the plate in PBS/0.1%casein/0.1%Tween-20 and incubated for 2 hours at room temperature. Plates were washed as described and a 1:10,000 dilution of streptavidin-HRP (Southern Biotech 7100-05) in PBS/0.1% casein/0.1% Tween-20 was added to the plate and incubated for 30 minutes at room temperature. Plates were again washed and Ultra TMP ELISA (Thermo 34028) was added to the plate for 1 minute, followed by stop solution). OD 450 nm was read in a plate reader and background at 620 nm was subtracted. Both the chimeric parent (FIG. 8A) and the humanized variant (FIG. 8B) show complete specificity for factor Bb.
(In general: An ELISA detects its analyte on a solid surface through an enzyme-linked reagent.)

For a further assay, the target named is T2, C1r (Comptech A102) (UniProt P00736 18-705).
T2 sequence (looked up): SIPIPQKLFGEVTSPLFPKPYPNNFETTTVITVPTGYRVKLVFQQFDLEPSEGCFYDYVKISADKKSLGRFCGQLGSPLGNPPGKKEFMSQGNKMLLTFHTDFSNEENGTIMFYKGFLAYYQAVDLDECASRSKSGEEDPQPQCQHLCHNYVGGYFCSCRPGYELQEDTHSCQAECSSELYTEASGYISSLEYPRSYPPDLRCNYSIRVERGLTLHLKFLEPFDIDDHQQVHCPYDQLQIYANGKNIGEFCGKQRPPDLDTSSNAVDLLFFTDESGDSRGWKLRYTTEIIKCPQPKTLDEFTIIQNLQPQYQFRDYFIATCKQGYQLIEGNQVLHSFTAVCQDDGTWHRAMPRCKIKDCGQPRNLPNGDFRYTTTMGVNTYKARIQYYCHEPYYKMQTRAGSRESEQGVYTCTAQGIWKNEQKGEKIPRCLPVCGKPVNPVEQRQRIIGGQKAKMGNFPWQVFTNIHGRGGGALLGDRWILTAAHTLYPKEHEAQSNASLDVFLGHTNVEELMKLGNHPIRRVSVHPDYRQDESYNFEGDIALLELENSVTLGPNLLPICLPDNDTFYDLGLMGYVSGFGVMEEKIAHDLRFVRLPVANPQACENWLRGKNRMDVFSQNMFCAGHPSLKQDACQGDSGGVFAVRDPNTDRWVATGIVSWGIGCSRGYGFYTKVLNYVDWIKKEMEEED
Described as above. How it is done:
as §1

The next assay has as its target T3, C2a (prepared from C2) (UniProt P06681 244-752, limits assumed).
T3 construct: domain: C2a
T3 sequence (looked up): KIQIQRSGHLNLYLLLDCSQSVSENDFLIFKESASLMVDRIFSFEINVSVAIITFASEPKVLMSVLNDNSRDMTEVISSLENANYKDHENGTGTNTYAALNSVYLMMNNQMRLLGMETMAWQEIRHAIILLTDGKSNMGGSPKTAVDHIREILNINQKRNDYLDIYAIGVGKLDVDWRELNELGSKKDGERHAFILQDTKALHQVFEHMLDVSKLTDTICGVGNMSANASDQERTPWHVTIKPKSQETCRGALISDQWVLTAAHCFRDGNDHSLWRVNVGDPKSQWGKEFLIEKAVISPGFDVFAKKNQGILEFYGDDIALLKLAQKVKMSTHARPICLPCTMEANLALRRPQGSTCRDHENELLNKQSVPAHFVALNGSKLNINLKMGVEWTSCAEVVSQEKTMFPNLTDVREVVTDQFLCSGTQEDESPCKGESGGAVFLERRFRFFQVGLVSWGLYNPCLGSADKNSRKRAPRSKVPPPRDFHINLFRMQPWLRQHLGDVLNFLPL
The description is as above. How it is done: as §1

Assay [1] addresses thrombin (EMD Millipore 605195) (UniProt P00734 328-622). Described as above. How it is done:
as §1

For assay [2], the target named is factor D (Competech A136) (UniProt P00746 26-253). The assay is described as above. The procedure: as §1
factor D (Competech A136), sequence (P00746 26-253 limits assumed): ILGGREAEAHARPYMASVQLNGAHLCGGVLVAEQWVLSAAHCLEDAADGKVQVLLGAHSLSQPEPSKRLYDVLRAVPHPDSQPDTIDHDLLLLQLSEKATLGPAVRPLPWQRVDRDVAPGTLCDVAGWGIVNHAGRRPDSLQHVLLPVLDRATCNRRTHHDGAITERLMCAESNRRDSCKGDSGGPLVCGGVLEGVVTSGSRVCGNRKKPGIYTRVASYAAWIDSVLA
Assay [3] concerns the target T4, Homo sapiens factor Bb protein (human, UniProt P00751 260-764).
T4 construct: Bought from CompTech (A155); also called complement factor Bb; human factor Bb
In words: ELISA, factor Bb coated at 2.5 µg/mL, biotinylated antibody titrated, streptavidin-HRP, OD450 background subtracted. How it is done: as §1

T4 sequence (P00751 260-764 limits assumed): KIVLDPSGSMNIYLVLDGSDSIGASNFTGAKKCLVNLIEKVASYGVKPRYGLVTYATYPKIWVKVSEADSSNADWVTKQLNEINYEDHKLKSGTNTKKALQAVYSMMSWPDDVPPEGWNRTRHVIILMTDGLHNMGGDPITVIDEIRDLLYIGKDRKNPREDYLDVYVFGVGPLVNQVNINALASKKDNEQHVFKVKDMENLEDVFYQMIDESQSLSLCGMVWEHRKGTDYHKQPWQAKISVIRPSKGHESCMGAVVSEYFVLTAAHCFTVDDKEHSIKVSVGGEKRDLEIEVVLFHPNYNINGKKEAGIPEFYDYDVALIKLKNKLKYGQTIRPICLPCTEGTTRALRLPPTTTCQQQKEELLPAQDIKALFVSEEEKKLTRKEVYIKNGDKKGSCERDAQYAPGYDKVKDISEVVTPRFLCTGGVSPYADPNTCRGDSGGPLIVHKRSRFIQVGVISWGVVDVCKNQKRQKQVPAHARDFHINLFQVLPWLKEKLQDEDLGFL

B1: VH6/Vκ7-IgG4v2 (antibody)
heavy: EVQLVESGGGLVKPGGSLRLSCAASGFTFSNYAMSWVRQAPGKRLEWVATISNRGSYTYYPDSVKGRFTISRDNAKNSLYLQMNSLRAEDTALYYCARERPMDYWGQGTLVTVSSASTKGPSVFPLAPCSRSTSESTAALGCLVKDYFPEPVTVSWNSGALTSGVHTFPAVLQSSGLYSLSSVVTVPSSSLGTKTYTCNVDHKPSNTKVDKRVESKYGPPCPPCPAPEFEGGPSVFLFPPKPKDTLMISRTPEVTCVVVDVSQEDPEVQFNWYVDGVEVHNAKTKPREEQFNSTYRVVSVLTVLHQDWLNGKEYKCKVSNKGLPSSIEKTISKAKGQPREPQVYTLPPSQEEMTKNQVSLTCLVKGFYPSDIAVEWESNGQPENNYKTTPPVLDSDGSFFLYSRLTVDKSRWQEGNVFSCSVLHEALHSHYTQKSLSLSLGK
light: DIQMTQSPSTLSASVGDRVTITCKASQDVGTAVAWYQQKPGKAPKLLIYWASTRHTGVPDRFSGSGSGTDFTLTISSLQAEDFAVYFCHQHSSNPLTFGQGTKLEIKRTVAAPSVFIFPPSDEQLKSGTASVVCLLNNFYPREAKVQWKVDNALQSGNSQESVTEQDSKDSTYSLSSTLTLSKADYEKHKVYACEVTHQGLSSPVTKSFNRGEC
notes: also called VH6/VK7-IgG4v2; VH6/VK7-IgG4v2_HEK
By EC50 (read off the curve) is commonly meant the concentration that produces a half-maximal response. In the case of B1, the binding result (with aCls (Comptech A104); in the assay with C1r (Comptech A102); with C2a (prepared from C2); in assay [1]; in assay [2]) was “no binding” each time. Also, in assay [3], the “EC50 (read off the curve)” value is about 0.02 µg/mL.

B2: VH0/Vκ0 (Chimeric) (antibody, V domains shown)
VH: EVQLVESGGALVKPGGSLKLSCAASGFTFSNYAMSWVRQTPEKRLEWVATISNRGSYTYYPDSVKGRFTISRDNAKNTLYLQMSSLRSEDTALYYCARERPMDYWGQGTSVTVSS
VL: DIVMTQSHKFMSTSVGDRVSITCKASQDVGTAVAWYQQKPGQSPKLLIYWASTRHTGVPDRFTGSGSGTDFTLTITNVQSEDLAVYFCHQHSSNPLTFGAGTKLELK
notes: also called chimeric antibody
On to B2, for which the binding result (with aCls (Comptech A104); with C1r (Comptech A102); with C2a (prepared from C2); in assay [1]; in assay [2]) was “no binding (tested: about 10^5 ng/mL (log 5 on the axis))” each time. Besides, in assay [3], the “EC50 (read off the curve)” value was about 0.01 µg/mL.
